The numbers were not newly measured in PMC5979445, which cites them from elsewhere.

This data set has as its target Calmodulin (UniProt P0DP23).

With “TRPV1 CaM binding domain (from UniProt Q8NER1)”, the Kd (usually a measure of binding affinity in units of concentration) is 0.054 µM.
